This data set deals with the molecule itself. The data set can be described thus: crystal structure; room-temperature crystals of DHP-B, space group P2(1)2(1)2(1); neutron, in-house X-ray, SFX, SSX and serial Laue data; two protomers (A, B) in the asymmetric unit.

Consider one protein from publication PMC9438502, “Complementarity of neutron, XFEL and synchrotron crystallography for defining the structures of metalloenzymes at room temperature” (IUCrJ, 2022).

B1: dehaloperoxidase B (enzyme, Amphitrite ornata)
chain: MGFKQDIATLRGDLRTYAQDIFLAFLNKYPDEKRNFKNYVGKSDQELKSMAKFGDHTEKVFNLMMEVADRATDCVPLASDASTLVQMKQHSGLTTGNFEKLFVALVEYMRASGQSFDSQSWDRFGKNLVSALSSAGMK
notes: dehaloperoxidase B (DHP-B), heme-containing coelomic hemoglobin of the marine annelid Amphitrite ornata; 274 protein residues modelled for the two protomers of the asymmetric unit; Heme protein, ferric or oxyferrous; The crystal for NX and NX-Xray was perdeuterated (97% deuteration level); the other crystals were protiated; also called DHP-B; dehaloperoxidase isoenzyme B; source: E. coli …
For B1, the binding result is reported as “binds”.
